Laboratory results taken from US20230295324A1 (published 2023).

How the values were obtained:
[1] = target: T1, human OX40 on cells (CHO-K1/hu OX40) (human, UniProt P43489 29-277); assay: cell-based or functional assay
T1 sequence (looked up): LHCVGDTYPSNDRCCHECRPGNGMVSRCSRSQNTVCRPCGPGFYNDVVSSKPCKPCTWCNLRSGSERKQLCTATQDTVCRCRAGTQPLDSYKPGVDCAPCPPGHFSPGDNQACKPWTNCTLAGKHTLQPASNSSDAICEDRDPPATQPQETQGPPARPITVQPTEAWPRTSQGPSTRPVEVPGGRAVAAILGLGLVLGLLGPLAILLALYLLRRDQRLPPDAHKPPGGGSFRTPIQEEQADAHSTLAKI

[2] = target: T1, human OX40 on cells (CHO-K1/hu OX40); assay: cell-based or functional assay; remark: listed apart in the source
[3] = target: T2, cynomolgus monkey OX40 protein (Novoprotein, #CB17) (cynomolgus monkey); assay: ELISA, coated cyno OX40 protein
T2 construct: Bought recombinant protein; also called cyno OX40

[4] = target: T3, human 4-1BB on CHO-K1 cells (CHO-K1/hu 4-1BB) (human, UniProt Q07011 24-255); assay: flow cytometry on CHO-K1/hu 4-1BB cells
T3 construct: whole, on cells
T3 sequence (Q07011 24-255): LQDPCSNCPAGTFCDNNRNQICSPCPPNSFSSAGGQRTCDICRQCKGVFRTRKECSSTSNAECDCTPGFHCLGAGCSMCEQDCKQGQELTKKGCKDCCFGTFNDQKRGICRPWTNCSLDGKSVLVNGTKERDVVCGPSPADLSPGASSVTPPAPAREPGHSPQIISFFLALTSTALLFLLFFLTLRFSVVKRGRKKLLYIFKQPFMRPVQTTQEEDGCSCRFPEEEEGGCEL
Experimental: This example is intended to investigate the specificity of in vitro binding of anti-human OX40 HCAb monoclonal antibodies by detecting 3 receptors of the TNF tumor necrosis factor receptor superfamily and ICOS by flow cytometry. The antibody binding assay at the cellular level was performed using a CHO-K1 cell strain overexpressing human OX40 (CHO-K1/hu OX40), a CHO-K1 cell strain overexpressing human CD40 (CHO-K1/hu CD40, Beijing KYinno, #KC-1286), a CHO-K1 cell strain overexpressing human 4-1BB (CHO-K1/hu 4-1BB, Genscript, #M00538) and an HEK293 cell strain overexpressing human ICOS (HEK293T/ICOS, Genscript, #KC-0210). Briefly, these cells were digested and resuspended in F12K or DMEM complete medium, and the cell density was adjusted to 1×10⁶ cells/mL. The cells were seeded in a 96-well V-bottom plate at 100 μL/well, and centrifuged, and then the supernatant was discarded. Then, the test antibodies diluted in a 3-fold gradient were added at 100 μL/well. The cells were incubated at 4° C. for 1 h away from light. Thereafter, the cells in each well were rinsed twice with 100 μL of pre-cooled PBS, and centrifuged at 500 g at 4° C. for 5 min, and then the supernatant was discarded. […] Finally, the cells in each well were resuspended in 200 μL of pre-cooled PBS, and the fluorescence signal values were read using NovoCyte flow cytometer (ACEA Biosciences).

[5] = target: T4, human OX40 protein (Acro biosystem, #OX0-H5224) (human, UniProt P43489 29-216); assay: BLI, antibody on ProA sensor, 1:1 global fit
T4 construct: Bought recombinant protein
T4 sequence (looked up): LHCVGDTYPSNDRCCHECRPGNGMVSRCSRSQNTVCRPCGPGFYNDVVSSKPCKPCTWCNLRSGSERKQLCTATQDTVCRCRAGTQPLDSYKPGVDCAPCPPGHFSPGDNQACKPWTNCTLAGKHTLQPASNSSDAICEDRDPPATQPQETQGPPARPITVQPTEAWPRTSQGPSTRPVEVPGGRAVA
Experimental: (§1) The binding kinetics between the antigen and the antibody was analyzed by the Biolayer Interferometry (BLI) technique using an Octet Red 96e molecular interaction analyzer (Fortebio).
(§2) The association and dissociation signals between the OX40 antibodies and OX40 proteins were recorded by Octet Red 96 in real time. When data analysis was performed using Octet Data Analysis software (Fortebio, version 11.0), 0 nM was used as a reference hole, and reference subtraction was performed; the “1:1 Global fitting” method was selected to fit the data, and the kinetics parameters of the binding of antigens to antigen-binding proteins were calculated, with kon(1/Ms) values, kdis(1/s) values and KD(M) values obtained.

[6] = target: T2, cynomolgus monkey OX40 protein …; assay: BLI, antibody on ProA sensor, 1:1 global fit
Experimental: as §1, §2

EC50, HEK293/OX40/NF-kb luciferase reporter [1]: 5.37 nM | Maximum fluorescence signal value, HEK293/OX40/NF-kb luciferase reporter [1]: 137000 luminescence | EC50, IFN-γ release by human T cells with OKT3 and CHO-K1-CD32b cells [2]: 0.0863 nM | Maximum IFN-γ release value [2]: 2000 | EC50 [3]: 0.232 nM | Maximum OD [3]: 2.16 OD | binding result [4]: no binding | Kd [5]: 4.16 nM | koff [5]: 0.000156 s⁻¹ | kon [5]: 37400 M⁻¹ s⁻¹ | Kd [6]: 19.2 nM | koff [6]: 0.000475 s⁻¹ | kon [6]: 24800 M⁻¹ s⁻¹
B1: PR002067 (antibody, human IgG1, V domains shown)
VH: EVQLLESGGGLVQPGGSLRLSCAASGFTFSSYAMSWVRQAPGKGLEWVSAISGRGGSTFYADSVRGRFTISRDNSKNTLYLQMNSLRAEDTAMYYCVDGTTGTTDVDYWGQGTLVTVSS
notes: no light chain; also called anti-OX40 HCAb antibody
